This note sets out measurements from patent JP2024044204A (dated 2024).

Experiment [1] concerns the target T1, SARS-CoV-2 RBD, Omicron strain (B.1.1.529 (BA.1)) (SARS-CoV-2 Omicron strain B.1.1.529 …, UniProt P0DTC2 319-541).
T1 construct: also called Omicron-derived RBD; RBD protein (Omicron type)
The experiment can be described thus: ELISA of culture supernatant on Omicron RBD (Fig. 2-1). (An ELISA detects its analyte on a solid surface through an enzyme-linked reagent.)

Experiment [2] deals with T1, SARS-CoV-2 RBD, Omicron strain …. The experiment can be described thus: ELISA on Omicron RBD, 300 ng/ml antibody (Fig. 2-2).
Experiment [3] shares this target. The experiment can be described thus: ELISA on Omicron RBD (supernatant, Fig. 2-1; 300 ng/ml, Fig. 2-2).

Changes are numbered by the printed parent chain. Names may count otherwise.

B1: 28G_1-GN (UT28K S55G) (antibody, V domains shown)
VH: QMQLVQSGPEVKKPGTSVKVSCKASGFTFSISAVQWVRQARGQRLEWIGWIVVGGGNTNYAQKFQERVTITRDMSTSTAYMELSSLRFEDTAVYYCAAPYCGGDCSDGFDIWGQGTMVTVSS
VL: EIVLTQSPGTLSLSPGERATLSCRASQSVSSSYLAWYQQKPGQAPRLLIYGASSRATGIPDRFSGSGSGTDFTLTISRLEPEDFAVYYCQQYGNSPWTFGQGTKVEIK
B1: the binding result in experiment [1] is recorded as “no binding”.

B2: UT28K N57E (antibody, V domains shown)
VH: B1 VH with G55S, N57E
VL: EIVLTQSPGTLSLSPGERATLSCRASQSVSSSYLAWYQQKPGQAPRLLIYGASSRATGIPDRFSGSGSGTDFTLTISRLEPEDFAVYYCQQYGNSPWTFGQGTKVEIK
Turning to B2, the binding result in experiment [2] was “no binding (tested: 300 ng/ml (Fig. 2-2))”.

B3: 4_12-SS/WT (UT28K N57S) (antibody, V domains shown)
VH: B1 VH with G55S, N57S
VL: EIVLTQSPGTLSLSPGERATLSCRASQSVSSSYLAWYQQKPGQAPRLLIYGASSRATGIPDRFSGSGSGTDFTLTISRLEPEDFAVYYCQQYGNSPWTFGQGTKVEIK
B3: in experiment [3], the binding result is recorded as “no binding (tested: 300 ng/ml (Fig. 2-2))”.

B4: 28G_5-SG (UT28K N57G) (antibody, V domains shown)
VH: B1 VH with G55S, N57G
VL: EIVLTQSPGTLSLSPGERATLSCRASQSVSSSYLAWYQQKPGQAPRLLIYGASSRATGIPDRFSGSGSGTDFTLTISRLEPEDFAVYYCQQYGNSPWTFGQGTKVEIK
In the case of B4, in experiment [3], the binding result is “no binding (tested: 300 ng/ml (Fig. 2-2))”.

B5: 28G_3-SR (UT28K N57R) (antibody, V domains shown)
VH: B1 VH with G55S, N57R
VL: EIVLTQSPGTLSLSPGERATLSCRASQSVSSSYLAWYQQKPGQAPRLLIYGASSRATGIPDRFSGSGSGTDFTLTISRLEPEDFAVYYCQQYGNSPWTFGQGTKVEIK
As to B5, the binding result in experiment [3] was “no binding (tested: 300 ng/ml (Fig. 2-2))”.

B6: 28G_6-GR (UT28K S55G, N57R) (antibody, V domains shown)
VH: B1 VH with N57R
VL: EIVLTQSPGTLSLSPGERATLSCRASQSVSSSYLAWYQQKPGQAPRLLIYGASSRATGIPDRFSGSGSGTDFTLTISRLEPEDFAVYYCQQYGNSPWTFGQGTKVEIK
As to B6, the binding result in experiment [1] is “no binding”.

B7: 28G_8-GG (UT28K S55G, N57G) (antibody, V domains shown)
VH: B1 VH with N57G
VL: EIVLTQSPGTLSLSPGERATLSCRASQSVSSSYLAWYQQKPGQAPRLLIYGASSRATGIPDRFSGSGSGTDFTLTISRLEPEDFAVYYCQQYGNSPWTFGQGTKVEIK
Regarding B7, the binding result in experiment [1] was “no binding”.
